Data set [1] in a line: Melting temperature (Tm) of the enzyme at varying EMIM Acetate concentration. Format: physicochemical.
Data set [2] in a line: Activity assay on insoluble substrate: [C2mim][OAc] pretreated corn stover. The class given is biochemical. The following applies: pCorn stover. The text has this:
Corn stover refers to stalks, leaves and cobs that remain in the fields after the corn kernel harvest and is the largest quantity of biomass residue in the United States and as such is also a LC-biomass source for producing cellulosic ethanol in the United States. [C2mim][OAc] pretreated corn stover is used as a substrate to verify enzymatic efficiency on IL-pretreated biomass and a comparison made with [C2mim][OAc] pretreated Avicel. Avicel is a commercially available microcrystalline cellulose and a good model substrate for analysis. Similar assays are done in the presence of [C2mim][OAc] to simulate real biomass processing and saccharification scenarios. The assay products for the reactions in the presence of IL are detected by high performance anion exchange chromatography (HPAEC). The enzymatic hydrolysis reaction is carried out for 8 h for the T. viride cellulase and 15 h for the hyperthermophilic enzymes, taking into account the half-lives of these enzymes. To compare the amounts of total sugars formed between different reactions, the sum of glucose, xylose and cellobiose are calculated and reported as mmoles of sugars formed per min per mg of enzyme used (Table 7). A comparison of assay results between pretreated and untreated substrate indicates a 2-6 fold increase in hydrolysis products after pretreatment irrespective of the enzyme used, thereby confirming that IL pretreatment can increase the efficiency of hydrolysis of cellulose recovered from biomass. […] The catalytic efficiency of the fungal enzyme however, decreases with increasing IL concentration in the reaction mix. After normalizing for the reaction time and enzyme amounts, the amount of sugars formed is undetectable at 15% [C2mim][OAc]. […] The yield of sugars from Tma Cel5A hydrolysis of pretreated Avicel in the presence of 15% IL decreases by 43% compared to 0% IL, while the decrease is only 10% in the case of Pho EG on the same substrate under similar conditions (Table 7).
The hydrolysis reactions are performed under pH and temperatures for each enzyme as described herein. The reactions are run over a 14 h period with 5-10 mg of enzyme with 6% (w/v) enzyme loading in optimum buffer for each enzyme and run in duplicate. The reaction products are measured on a HPLC and HPAEC. The amounts of sugars detected are shown in mmoles and normalized with regards to amount of enzyme and time of reaction. Different reactions under each enzyme were run under exactly similar conditions.
[C2mim][OAc] (1 kg, as received, <0.2% moisture specified) is heated to 130° C. in a 1.5 L glass reaction vessel with mechanical stirring and 8% w/w (corn stover, 4.8% moisture) or 10% w/w (Avicel PH-101, 3% moisture). After around 3 h when the majority (corn stover) or all (Avicel) has dissolved, the dissolved corn stover or Avicel is allowed to cool to below 80° C. and is added to 2 L of 95% ethanol with rapid agitation to induce the precipitation of dissolved materials. The resulting slurry is filtered under pressure through polypropylene filter cloth and the solids redispersed in 2 L of additional ethanol. The filtration and redispersion steps are repeated twice to remove most residual ionic liquid and the filter cake dried under vacuum at 40° C. to yield a free-flowing powder product. Residual free ionic liquid remaining in the dried biomass is estimated to be less than 4% (w/w).
Enzymatic activity is measured on soluble polysaccharide substrates, CMC, using the 3,5-dinitrosalicylic acid (DNS) reducing sugar assay. Briefly, 2% CMC (w/v) in […] acetate buffer, (100 mM, pH 4.5 and pH 4.8 for T. viride and Tma, respectively, and 100 mM MES buffer, pH 6.4 for P. hori EG) is incubated at 80° C. for 30 min for Tma Cel5A and Pho enzymes and 37° C. and 10 min for T. viride. The solution is cooled down to 4° C. and […] of DNS solution is added. The reactants are incubated at 95° C. for 5 min and cooled down to room temperature before the absorbance is read at 540 nm. […]

The source of these data is patent US9322042B2, “Thermostable cellulases, and mutants thereof, capable of hydrolyzing cellulose in ionic liquid” (The Regents of the University of California, priority 2009, dated 2016).

B1: Tma Cel5A: wild-type cellulase of Thermatoga maritima strain MSB8 (Accession No. NP_229549); SEQ ID NO: 20 (protein, listed as Thermotoga maritima)
chain: MGVDPFERNKILGRGINIGNALEAPNEGDWGVVIKDEFFDIIKEAGFSHVRIPIRWSTHAYAFPPYKIMDRFFKRVDEVINGALKRGLAVVINIHHYEELMNDPEEHKERFLALWKQIADRYKDYPETLFFEILNEPHGNLTPEKWNELLEEALKVIRSIDKKHTIIIGTAEWGGISALEKLSVPKWEKNSIVTIHYYNPFEFTHQGAEWVEGSEKWLGRKWGSPDDQKHLIEEFNFIEEWSKKNKRPIYIGEFGAYRKADLESRIKWTSFVVREMEKRRWSWAYWEFCSGFGVYDTLRKTWNKDLLEALIGGDSIE
For the molecule B1, the “Melting Temp.” value in data set [1] (0% EMIM Acetate, listed as T. maritima) worked out at 108 °C; in data set [1] (0% EMIM Acetate, listed as T. maritima endoglucanase), 109 °C; in data set [1] (5% EMIM Acetate), 101 °C; in data set [1] (10% EMIM Acetate) it was 98 °C; in data set [1] (15% EMIM Acetate), 93 °C; in data set [1] (20% EMIM Acetate), 89 °C. Moreover, the “Melting Temp. Decrease” value stood at 8 °C in data set [1] (5% EMIM Acetate vs 0%), 11 °C in data set [1] (10% EMIM Acetate vs 0%), 16 °C in data set [1] (15% EMIM Acetate vs 0%) and 20 °C in data set [1] (20% EMIM Acetate vs 0%). Besides, the “Sugars produced (sum of glucose, cellobiose and xylose)” value in data set [2] (0% [C2mim][OAc]) is 9 ± 1 µmol/min/mg; in data set [2] (5% [C2mim][OAc]), 8 ± 0.9 µmol/min/mg; in data set [2] (10% [C2mim][OAc]) it was 7 ± 1 µmol/min/mg; in data set [2] (15% [C2mim][OAc]) it was 5.9 ± 1^ μmoles min^−1 mg^−1.

B2: Pho EG: cellulase of Pyrococcus horikoshii strain OT3 (Accession No. NP_143072); SEQ ID NO: 21 (protein, listed as Pyrococcus horikoshii)
chain: MEGNTILKIVLICTILAGLFGQVVPVYAENTTYQTPTGIYYEVRGDTIYMINVTSGEETPIHLFGVNWFGFETPNHVVHGLWKRNWEDMLLQIKSLGFNAIRLPFCTESVKPGTQPIGIDYSKNPDLRGLDSLQIMEKIIKKAGDLGIFVLLDYHRIGCTHIEPLWYTEDFSEEDFINTWIEVAKRFGKYWNVIGADLKNEPHSVTSPPAAYTDGTGATWGMGNPATDWNLAAERIGKAILKVAPHWLIFVEGTQFTNPKTDSSYKWGYNAWWGGNLMAVKDYPVNLPRNKLVYSPHVYGPDVYNQPYFGPAKGFPDNLPDIWYHHFGYVKLELGYSVVIGEFGGKYGHGGDPRDVIWQNKLVDWMIENKFCDFFYWSWNPDSGDTGGILQDDWTTIWEDKYNNLKRLMDSCSKSSSSTQSVIRSTTPTKSNTSKKICGPAILIILAVFSLLLRRAPR
Consider B2, for which the “Sugars produced (sum of glucose, cellobiose and xylose)” value in data set [2] (0% [C2mim][OAc]) was 2.14 ± 0.1 µmol/min/mg; in data set [2] (5% [C2mim][OAc]), 2.2 ± 0.14 µmol/min/mg; in data set [2] (10% [C2mim][OAc]), 2.0 ± 0.2 µmol/min/mg; in data set [2] (15% [C2mim][OAc]), 1.9 ± 0.1 µmol/min/mg.
